Laboratory results taken from patent US20090098549, “SELEX AND PHOTOSELEX” (SOMALOGIC, INC., published 2009).

Target: beta-catenin (UniProt P35222 P35222:2-781)
Test: photocrosslink returned to full activity without 3' fixed region
Conditions: tags: NHS-PEO4-biotin or His tag (assay used TALON beads); label: 32P
Procedure: Radiolabeled aptamer (100 pM) was denatured and renatured as described above, with, or without a 100-fold excess of unlabeled 3′ primer. The samples were incubated with or without 10 nM β-catenin protein in SB17 for 30 minutes at 37° C., after which complexes were crosslinked by irradiation with an OAI Hg lamp (Optical Associates, Inc. model 0131-0003-01, 500 W, with 310 nm mirror set) for 10 minutes at 37° C. Samples were mixed with 2× formamide loading buffer, heated for 10 minutes at 70° C., and loaded on a 10% polyacrylamide TBE-urea gel. Phosphorimages were collected with a FUJI FLA-3000 FIG. 7A. Crosslink activity was determined for each sample by quantifying the free aptamer and aptamer:protein signals with FUJI ImageGauge image analysis software and calculating the percent of total DNA crosslinked with target protein and subtracting the percent crosslinked without protein.

beta-catenin, sequence (P35222 2-781, one chain of several): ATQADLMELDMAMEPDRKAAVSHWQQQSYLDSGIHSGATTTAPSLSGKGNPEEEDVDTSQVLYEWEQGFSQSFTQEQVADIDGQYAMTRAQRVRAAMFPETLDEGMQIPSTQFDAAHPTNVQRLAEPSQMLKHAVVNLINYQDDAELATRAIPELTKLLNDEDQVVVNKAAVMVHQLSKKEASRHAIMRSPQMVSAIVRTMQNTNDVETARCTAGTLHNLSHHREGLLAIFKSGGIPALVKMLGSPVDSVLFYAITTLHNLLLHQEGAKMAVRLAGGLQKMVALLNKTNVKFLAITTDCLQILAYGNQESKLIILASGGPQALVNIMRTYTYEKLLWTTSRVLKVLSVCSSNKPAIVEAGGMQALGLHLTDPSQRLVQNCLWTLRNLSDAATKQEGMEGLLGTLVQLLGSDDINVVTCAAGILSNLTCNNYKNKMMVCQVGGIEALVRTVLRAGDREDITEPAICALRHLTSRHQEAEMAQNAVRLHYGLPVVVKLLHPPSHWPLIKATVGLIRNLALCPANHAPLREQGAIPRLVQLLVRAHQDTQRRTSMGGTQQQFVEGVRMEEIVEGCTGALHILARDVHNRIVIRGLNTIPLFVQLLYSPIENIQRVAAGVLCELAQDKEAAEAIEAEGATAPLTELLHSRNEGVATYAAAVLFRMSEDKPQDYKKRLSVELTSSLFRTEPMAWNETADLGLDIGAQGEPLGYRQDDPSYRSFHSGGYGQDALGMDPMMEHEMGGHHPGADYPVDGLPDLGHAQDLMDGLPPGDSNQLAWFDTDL

B1: 2092-68-6 (ssDNA)
DNA: ATATATATGAGTGACCGTCTGCCTGAGCUGCGGUUGAUGAUAUACUUCGCUUUCACUGCUCACAC
modifications: X=ANA-dT, Z=BzdU
binding result: binds
